These results are taken from article PMC9482650, “Quantitative fragmentomics allow affinity mapping of interactomes” (Nature Communications, 2022).

Among the targets are ARHGEF12, Q9NZN5-2; CASK, O14936; DLG4_1, P78352; FRMPD2_2, Q68DX3; GRIP2_4, Q9C0E4; Inadl_4, Q8NI35; MAGI2_6, Q86UL8; MAST2, Q6P0Q8; PDLIM1, O00151; PTPN3, P26045.
Holding throughout (assay): holdup assay
Set-up in all cases: key: below the threshold = too weak to quantify, mostly under pKd 3.1 to 4

Another experiment addresses T1, APBA1_2, Q02410.
T1 sequence (Q02410 742-832, limits assumed, looked up): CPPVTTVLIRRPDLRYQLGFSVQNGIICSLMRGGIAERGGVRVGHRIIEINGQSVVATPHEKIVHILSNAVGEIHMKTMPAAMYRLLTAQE

The target of another experiment is T2, APBA2_2, Q99767.
T2 sequence (Q99767 654-744, limits assumed, looked up): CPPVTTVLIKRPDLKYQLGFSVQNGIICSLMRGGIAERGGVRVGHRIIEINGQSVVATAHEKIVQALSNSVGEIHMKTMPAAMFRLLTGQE

The target in another experiment is T3, ARHGAP21, Q5T5U3.
T3 sequence (Q5T5U3 45-169, limits assumed, looked up): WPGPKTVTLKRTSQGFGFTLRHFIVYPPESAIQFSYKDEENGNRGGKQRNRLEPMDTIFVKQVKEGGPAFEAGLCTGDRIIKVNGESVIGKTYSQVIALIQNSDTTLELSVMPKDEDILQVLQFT

The target of the next experiment is T4, GRIP1_5, Q9Y3R0.
T4 sequence (Q9Y3R0 568-668, limits assumed, looked up): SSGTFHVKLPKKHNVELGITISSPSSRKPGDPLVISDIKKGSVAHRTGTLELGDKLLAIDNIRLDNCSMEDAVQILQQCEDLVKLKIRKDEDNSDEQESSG

The next experiment has as its target T5, LIN7B, Q9HAP6.
T5 sequence (Q9HAP6 88-185, limits assumed, looked up): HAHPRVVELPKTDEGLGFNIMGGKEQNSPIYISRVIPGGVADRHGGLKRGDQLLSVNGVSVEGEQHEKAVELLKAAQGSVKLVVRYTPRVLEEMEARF

For the next experiment, the target named is T6, MPDZ_5, O75970.
T6 sequence (O75970 695-796, limits assumed, looked up): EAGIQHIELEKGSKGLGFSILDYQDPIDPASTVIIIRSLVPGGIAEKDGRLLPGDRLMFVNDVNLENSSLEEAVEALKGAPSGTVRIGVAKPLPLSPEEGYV

The next experiment concerns the target T7, MPP2, Q14168.
T7 sequence (Q14168 180-250, limits assumed, looked up): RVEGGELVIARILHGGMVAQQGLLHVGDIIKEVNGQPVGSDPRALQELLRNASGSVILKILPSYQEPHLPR

For another experiment, the target named is T8, MPP7, Q5T2T1.
T8 sequence (Q5T2T1 134-230, limits assumed, looked up): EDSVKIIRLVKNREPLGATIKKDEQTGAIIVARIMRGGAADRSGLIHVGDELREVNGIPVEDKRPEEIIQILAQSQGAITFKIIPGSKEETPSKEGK

The target of the next experiment is T9, NHERF3_3, Q5T2W1.
T9 sequence (Q5T2W1 238-333, limits assumed, looked up): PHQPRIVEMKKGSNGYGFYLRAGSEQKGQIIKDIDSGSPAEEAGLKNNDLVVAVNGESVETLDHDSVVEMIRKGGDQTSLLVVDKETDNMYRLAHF

The next experiment deals with T10, NHERF3_4, Q5T2W1.
T10 sequence (Q5T2W1 373-468, limits assumed, looked up): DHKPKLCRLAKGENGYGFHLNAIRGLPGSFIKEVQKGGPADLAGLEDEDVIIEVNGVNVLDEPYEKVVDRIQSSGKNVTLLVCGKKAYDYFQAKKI

The target of the next experiment is T11, PDZD7_3, Q9H5P4.
T11 sequence (Q9H5P4 857-944, limits assumed, looked up): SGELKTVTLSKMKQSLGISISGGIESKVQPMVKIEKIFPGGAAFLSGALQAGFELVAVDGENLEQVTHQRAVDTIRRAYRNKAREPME

The next experiment deals with T12, SIPA1L2, Q9P2F8.
T12 sequence (Q9P2F8 945-1036, limits assumed, looked up): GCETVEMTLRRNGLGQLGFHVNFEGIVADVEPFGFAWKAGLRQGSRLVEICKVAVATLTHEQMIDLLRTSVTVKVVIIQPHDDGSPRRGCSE

Another experiment concerns the target T13, SNTB1, Q13884.
T13 sequence (Q13884 107-205, limits assumed, looked up): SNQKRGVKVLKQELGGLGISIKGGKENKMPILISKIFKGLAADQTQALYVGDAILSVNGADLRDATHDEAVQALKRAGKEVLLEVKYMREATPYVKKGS

For another experiment, the target named is T14, TX1BP3, O14907.
T14 sequence (O14907 10-122, limits assumed, looked up): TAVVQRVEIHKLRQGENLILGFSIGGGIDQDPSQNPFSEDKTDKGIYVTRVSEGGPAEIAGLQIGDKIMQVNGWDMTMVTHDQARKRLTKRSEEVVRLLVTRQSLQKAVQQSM

Setting [1] is: plain residues with an end cap or a label only (N-terminal biotin on a linker: ahx).
Setting [2] is: plain residues with an end cap or a label only (N-terminal biotin on a linker: ado-ado).

Chain of DLG4_1, P78352 (P78352 62-152): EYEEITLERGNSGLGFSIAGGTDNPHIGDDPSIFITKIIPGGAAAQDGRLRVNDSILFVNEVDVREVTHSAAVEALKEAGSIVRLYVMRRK
Chain of Inadl_4, Q8NI35 (Q8NI35 547-651): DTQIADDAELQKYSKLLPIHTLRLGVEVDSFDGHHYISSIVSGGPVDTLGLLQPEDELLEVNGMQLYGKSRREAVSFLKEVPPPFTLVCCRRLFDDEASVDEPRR
Chain of MAGI2_6, Q86UL8 (Q86UL8 1141-1229): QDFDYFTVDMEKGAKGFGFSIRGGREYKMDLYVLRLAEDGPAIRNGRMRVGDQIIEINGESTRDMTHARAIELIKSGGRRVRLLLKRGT
Chain of GRIP2_4, Q9C0E4 (Q9C0E4 446-548): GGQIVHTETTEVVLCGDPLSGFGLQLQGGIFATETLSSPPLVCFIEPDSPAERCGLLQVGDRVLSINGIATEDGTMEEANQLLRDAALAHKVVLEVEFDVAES
Chain of MAST2, Q6P0Q8 (Q6P0Q8 1099-1202): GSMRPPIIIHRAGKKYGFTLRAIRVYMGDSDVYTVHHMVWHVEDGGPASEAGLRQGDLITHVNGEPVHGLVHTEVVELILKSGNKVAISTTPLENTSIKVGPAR
Chain of FRMPD2_2, Q68DX3 (Q68DX3 944-1038): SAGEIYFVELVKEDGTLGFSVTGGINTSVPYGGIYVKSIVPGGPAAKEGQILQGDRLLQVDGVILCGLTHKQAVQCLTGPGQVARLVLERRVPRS
Chain of ARHGEF12, Q9NZN5-2 (Q9NZN5 other isoform, or with tags, fused parts or gaps): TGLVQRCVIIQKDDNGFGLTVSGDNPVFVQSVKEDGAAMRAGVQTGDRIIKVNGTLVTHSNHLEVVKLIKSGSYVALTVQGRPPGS
Chain of CASK, O14936 (O14936 487-570): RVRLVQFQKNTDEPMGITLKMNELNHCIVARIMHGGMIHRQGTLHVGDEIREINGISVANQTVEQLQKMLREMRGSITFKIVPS
Chain of PDLIM1, O00151 (O00151 1-87): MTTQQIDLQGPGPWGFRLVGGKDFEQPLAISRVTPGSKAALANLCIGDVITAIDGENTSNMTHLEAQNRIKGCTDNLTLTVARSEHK
Chain of PTPN3, P26045 (P26045 505-587): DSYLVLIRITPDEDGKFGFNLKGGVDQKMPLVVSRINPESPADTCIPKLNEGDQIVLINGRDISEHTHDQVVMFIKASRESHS

On to QNTDDVQTSF [ACE2, Q9BYF1], for which the pKd entry was “below the threshold” in the experiment with APBA1_2, Q02410 (setting [1]); “below the threshold” with APBA2_2, Q99767 (setting [1]); 3.64 with ARHGAP21, Q5T5U3 (setting [1]); 3.65 with ARHGEF12, Q9NZN5-2 (setting [1]); “below the threshold” with CASK, O14936 (setting [1]); “below the threshold” with DLG4_1, P78352 (setting [1]). For the same molecule, the pKd result is reported as “below the threshold” with FRMPD2_2, Q68DX3 (setting [1]); “below the threshold” with GRIP1_5, Q9Y3R0 (setting [1]); “below the threshold” with GRIP2_4, Q9C0E4 (setting [1]); “below the threshold” in the experiment with Inadl_4, Q8NI35 (setting [1]); “below the threshold” with LIN7B, Q9HAP6 (setting [1]); “below the threshold” with MAGI2_6, Q86UL8 (setting [1]). The pKd with MAST2, Q6P0Q8 (setting [1]) was 5.13; with MPDZ_5, O75970 (setting [1]) it was “below the threshold”; with MPP2, Q14168 (setting [1]), “below the threshold”; with MPP7, Q5T2T1 (setting [1]), “below the threshold”; with NHERF3_3, Q5T2W1 (setting [1]), “below the threshold”; with NHERF3_4, Q5T2W1 (setting [1]), 3.57. The pKd result in the experiment with PDLIM1, O00151 (setting [1]) was “below the threshold”; in the experiment with PDZD7_3, Q9H5P4 (setting [1]), 3.51; in the experiment with PTPN3, P26045 (setting [1]), 4.45; with SIPA1L2, Q9P2F8 (setting [1]), “below the threshold”; in the experiment with SNTB1, Q13884 (setting [1]) it was “below the threshold”; in the experiment with TX1BP3, O14907 (setting [1]), “below the threshold”.
Take LPAVCYDIDI [PTTG2, Q9NZH5]: the pKd result in the experiment with APBA1_2, Q02410 (setting [2]) was “below the threshold”; with APBA2_2, Q99767 (setting [2]), “below the threshold”; in the experiment with ARHGAP21, Q5T5U3 (setting [2]) it was 4.02; with ARHGEF12, Q9NZN5-2 (setting [2]), “below the threshold”; with CASK, O14936 (setting [2]), “below the threshold”; with DLG4_1, P78352 (setting [2]), “below the threshold”. In addition, the pKd entry is “below the threshold” in the experiment with FRMPD2_2, Q68DX3 (setting [2]); “below the threshold” with GRIP1_5, Q9Y3R0 (setting [2]); “below the threshold” with GRIP2_4, Q9C0E4 (setting [2]); “below the threshold” in the experiment with Inadl_4, Q8NI35 (setting [2]); 3.53 in the experiment with LIN7B, Q9HAP6 (setting [2]); “below the threshold” in the experiment with MAGI2_6, Q86UL8 (setting [2]). The pKd is 5 with MAST2, Q6P0Q8 (setting [2]); “below the threshold” with MPDZ_5, O75970 (setting [2]); “below the threshold” with MPP2, Q14168 (setting [2]); 4.27 in the experiment with MPP7, Q5T2T1 (setting [2]); “below the threshold” with NHERF3_3, Q5T2W1 (setting [2]); “below the threshold” with NHERF3_4, Q5T2W1 (setting [2]). The pKd result was “below the threshold” with PDLIM1, O00151 (setting [2]); “below the threshold” in the experiment with PDZD7_3, Q9H5P4 (setting [2]); 4.22 in the experiment with PTPN3, P26045 (setting [2]); “below the threshold” with SIPA1L2, Q9P2F8 (setting [2]); “below the threshold” with SNTB1, Q13884 (setting [2]); 4.09 with TX1BP3, O14907 (setting [2]).
As to KKMLQRRTLL [OR8G1, Q15617], the pKd with APBA1_2, Q02410 (setting [2]) is 3.52; in the experiment with APBA2_2, Q99767 (setting [2]) it was “below the threshold”; with ARHGAP21, Q5T5U3 (setting [2]), “below the threshold”; in the experiment with ARHGEF12, Q9NZN5-2 (setting [2]) it was 4.51; with CASK, O14936 (setting [2]), “below the threshold”; in the experiment with DLG4_1, P78352 (setting [2]), 3.87. Moreover, the pKd result in the experiment with FRMPD2_2, Q68DX3 (setting [2]) is “below the threshold”; in the experiment with GRIP1_5, Q9Y3R0 (setting [2]), “below the threshold”; in the experiment with GRIP2_4, Q9C0E4 (setting [2]), “below the threshold”; with Inadl_4, Q8NI35 (setting [2]), “below the threshold”; with LIN7B, Q9HAP6 (setting [2]), “below the threshold”; with MAGI2_6, Q86UL8 (setting [2]), “below the threshold”. Moreover, the pKd with MAST2, Q6P0Q8 (setting [2]) was 5.13; with MPDZ_5, O75970 (setting [2]), “below the threshold”; in the experiment with MPP2, Q14168 (setting [2]), “below the threshold”; with MPP7, Q5T2T1 (setting [2]) it was “below the threshold”; with NHERF3_3, Q5T2W1 (setting [2]) it was 3.77; with NHERF3_4, Q5T2W1 (setting [2]), 4.64. Also, the pKd entry was “below the threshold” with PDLIM1, O00151 (setting [2]); 4.61 in the experiment with PDZD7_3, Q9H5P4 (setting [2]); 3.8 in the experiment with PTPN3, P26045 (setting [2]); “below the threshold” in the experiment with SIPA1L2, Q9P2F8 (setting [2]); 3.64 with SNTB1, Q13884 (setting [2]); 3.76 in the experiment with TX1BP3, O14907 (setting [2]).
As to QSGLYESEEL [MYOT, Q9UBF9], the pKd result is “below the threshold” in the experiment with APBA1_2, Q02410 (setting [2]); “below the threshold” with APBA2_2, Q99767 (setting [2]); “below the threshold” in the experiment with ARHGAP21, Q5T5U3 (setting [2]); 3.63 with ARHGEF12, Q9NZN5-2 (setting [2]); “below the threshold” with CASK, O14936 (setting [2]); “below the threshold” in the experiment with DLG4_1, P78352 (setting [2]). In addition, the pKd entry with FRMPD2_2, Q68DX3 (setting [2]) is “below the threshold”; with GRIP1_5, Q9Y3R0 (setting [2]), “below the threshold”; in the experiment with GRIP2_4, Q9C0E4 (setting [2]), “below the threshold”; in the experiment with Inadl_4, Q8NI35 (setting [2]), “below the threshold”; with LIN7B, Q9HAP6 (setting [2]), 3.66; with MAGI2_6, Q86UL8 (setting [2]) it was 4.24. For the same molecule, the pKd was 4.88 with MAST2, Q6P0Q8 (setting [2]); “below the threshold” with MPDZ_5, O75970 (setting [2]); “below the threshold” with MPP2, Q14168 (setting [2]); “below the threshold” with MPP7, Q5T2T1 (setting [2]); “below the threshold” with NHERF3_3, Q5T2W1 (setting [2]); “below the threshold” with NHERF3_4, Q5T2W1 (setting [2]). Besides, the pKd with PDLIM1, O00151 (setting [2]) was 5.09; in the experiment with PDZD7_3, Q9H5P4 (setting [2]), 3.63; with PTPN3, P26045 (setting [2]) it was 4.21; with SIPA1L2, Q9P2F8 (setting [2]), “below the threshold”; with SNTB1, Q13884 (setting [2]), “below the threshold”; in the experiment with TX1BP3, O14907 (setting [2]), 3.85.
